Measurements from patent US20230235070A1 (Pfizer, published 2023).

Target: T1, TNF-like ligand 1A (TL1A) (human, UniProt O95150 72-251)
T1 construct: Endogenous protein measured in patients' serum and biopsies by immunoprecipitation LC-MS/MS; also called TNFSF15; soluble TL1A
T1 sequence (looked up): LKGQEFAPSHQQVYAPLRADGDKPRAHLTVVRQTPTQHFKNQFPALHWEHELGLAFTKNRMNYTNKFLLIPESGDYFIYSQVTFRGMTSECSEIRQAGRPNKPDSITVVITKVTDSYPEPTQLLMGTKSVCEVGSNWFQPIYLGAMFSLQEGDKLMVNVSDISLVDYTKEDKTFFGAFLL
Assay: total soluble TL1A in serum of treated participants, immunoprecipitation LC-MS/MS (in vivo target engagement)
Experimental: An Immunoprecipitation LC-MS/MS assay has been developed and validated to measure total soluble TL1A in human serum. Total soluble TL1A is isolated from human serum using immuno-enrichment technology. The samples are incubated and shaken with a biotinylated anti-TL1A capture reagent at 4° C. overnight. Dynabeads MyOne C1 streptavidin-coupled magnetic beads are then added to each sample and incubated at room temperature for 1 h to extract TL1A bound to biotinylated capture antibody. The beads are then washed three times, followed by elution of total TL1A from the beads under acidic conditions. After addition of the extended sequence stable isotope labeled peptide (internal standard) to each sample, trypsin digestion is performed at 37° C. overnight. All sample processing is performed in a 96-well format on an automated liquid handling robot (Microlab STAR, Hamilton, Bonaduz, Switzerland). A 120 μL of the sample extract is injected onto a three-dimensional Dionex Ultimate 3000 nano-LC system, comprising a conventional flow immunoaffinity capture with custom 2.1 mm ID anti-peptide antibody column, and elution to 300 μm ID C18 trap column and 75 μm ID nano LC analytical column. […] One selected reaction monitoring transition for the signature peptide is used to quantify TL1A in the positive ion mode, and all data are normalized to the internal standard response. […]

B1: PF-06480605 (antibody, human IgG1, kappa, V domains shown)
VH: QVQLVQSGAEVKKPGASVKVSCKASGYDFTYYGISWVRQAPGQGLEWMGWISTYNGNTHYARMLQGRVTMTTDTSTRTAYMELRSLRSDDTAVYYCARENYYGSGAYRGGMDVWGQGTTVTVSS
VL: EIVLTQSPATLSLSPGERATLSCRASQSVSSYLAWYQQKPGQAPRLLIYDASNRATGIPARFSGSGSGTDFTLTISSLEPEDFAVYYCQQRSNWPWTFGQGTKVEIKR
notes: The embodiments and claims number differently (1 = VH, 2 = VL, 9 = HC, 10 = LC); also called anti-TL1A
B1: binds.
